Assay [1] addresses Recombinant SARS-CoV-2 BA.2 Spike (GCN4-IZ) His Protein, CF (R&D, 11109-CV) (SARS-CoV-2) (UniProt P0DTC2). Description: competition ELISA: blocks biotin-ACE2 binding to coated spike. In general terms: ELISA stands for enzyme-linked immunosorbent assay.
In assay [2] the target is SARS-CoV-2 Spike Trimer, His Tag (BA.5/Omicron) (MALS verified) (AcroBiosystems, SPN-C522e) (SARS-CoV-2) (UniProt P0DTC2). The description is as above.
Assay [3] concerns the target SARS-CoV-2 B.1.1.529 Spike Protein (Omicron) (SARS-CoV-2) (UniProt P0DTC2). Described as above.
Assay [4] deals with SARS-CoV-2 Spike Trimer, His Tag (BA.4/Omicron) (MALS verified) (AcroBiosystems, SPN-C5229) (SARS-CoV-2) (UniProt P0DTC2). The description is as above.
Assay [5] has as its target SARS-CoV-2 B.1.617.2 Spike Protein (R&D, Cat. #10878-CV) (SARS-CoV-2) (UniProt P0DTC2). Description: BLI (ForteBio), mAb on AHC sensor, spike in solution.
In assay [6] the target is SARS-CoV-2 B.1.1.529 Spike Protein (Omicron) (SARS-CoV-2) (UniProt P0DTC2). The assay is described as above.
The target of assay [7] is SARS-CoV-2 B.1.617.2 Spike Protein (R&D, Cat. #10878-CV) (SARS-CoV-2) (UniProt P0DTC2). Description: direct ELISA on coated spike.
Assay [8] shares this target. Description: competition ELISA: blocks biotin-ACE2 binding to coated spike.
For assay [9] the target is unchanged. Described as above. This is another data set of the same source.

Like-named read-outs stand apart in the source and are kept apart here.

With Bebtelovimab (antibody), the concentration for half-maximal inhibition (IC50) in assay [1] came out at 3.08 nM; in [2], 3.46 nM; in assay [3] it was 6.73 nM; in assay [4], 4.07 nM.

Regarding Imdevimab (antibody), the equilibrium dissociation constant (Kd) was found to be 1.53 nM in [5] and 456 nM in assay [6]. Further, the EC50 in assay [7] was determined as 0.0671 nM.

Turning to Casirivimab (antibody), the IC50 came out at 1.1 nM in [8] and 0.956 nM in [9]. The Kd came out at 0.484 nM in assay [5] and 7.82 nM in assay [6]. In assay [7], this substance gave an EC50 of 0.0399 nM.

In general, IC50 refers to the concentration that inhibits the measured activity by half. What is called Kd is the free concentration of one partner at which half of the binding sites on the other are occupied at equilibrium, for simple one-to-one binding. The EC50 is the concentration giving half of the maximal effect. A low value points to higher potency in that assay.

Source of the values: patent US20260250363A1.
